Marks after values point to notes of the source that are not given here.
B1: M-ELP90A,120: myristoylated ELP: Arf2 recognition sequence fused to 120 repeats of VPGXG, X 90% alanine and 10% valine (SEQ ID NO: 34) (conjugate)
chain: MGLYASKLFSNLGAGVPGAGVPGVGVPGAGVPGAGVPGAGVPGAGVPGAGVPGAGVPGAGVPGAGVPGAGVPGVGVPGAGVPGAGVPGAGVPGAGVPGAGVPGAGVPGAGVPGAGVPGAGVPGVGVPGAGVPGAGVPGAGVPGAGVPGAGVPGAGVPGAGVPGAGVPGAGVPGVGVPGAGVPGAGVPGAGVPGAGVPGAGVPGAGVPGAGVPGAGVPGAGVPGVGVPGAGVPGAGVPGAGVPGAGVPGAGVPGAGVPGAGVPGAGVPGAGVPGVGVPGAGVPGAGVPGAGVPGAGVPGAGVPGAGVPGAGVPGAGVPGAGVPGVGVPGAGVPGAGVPGAGVPGAGVPGAGVPGAGVPGAGVPGAGVPGAGVPGVGVPGAGVPGAGVPGAGVPGAGVPGAGVPGAGVPGAGVPGAGVPGAGVPGVGVPGAGVPGAGVPGAGVPGAGVPGAGVPGAGVPGAGVPGAGVPGAGVPGVGVPGAGVPGAGVPGAGVPGAGVPGAGVPGAGVPGAGVPGAGVPGAGVPGVGVPGAGVPGAGVPGAGVPGAGVPGAGVPGAGVPGAGVPGAGVPGAGVPGVGVPGAGVPGAGVPGAGVPGAGVPGAGVPGAGVPGAGVPGY
modifications: N-terminal myristoylation
B2: ELP90A,120: non-myristoylated control, recognition sequence-ELP grown without NMT (SEQ ID NO: 34) (protein)
chain: B1 chain
B3: M-ELP100V,40: myristoylated ELP with 40 repeats of VPGXG where X is 100% valine (SEQ ID NO: 37) (conjugate)
chain: MGLYASKLFSNLGVGVPGVGVPGVGVPGVGVPGVGVPGVGVPGVGVPGVGVPGVGVPGVGVPGVGVPGVGVPGVGVPGVGVPGVGVPGVGVPGVGVPGVGVPGVGVPGVGVPGVGVPGVGVPGVGVPGVGVPGVGVPGVGVPGVGVPGVGVPGVGVPGVGVPGVGVPGVGVPGVGVPGVGVPGVGVPGVGVPGVGVPGVGVPGVGVPGVGVPG
modifications: N-terminal myristoylation
B4: ELP90A,40: non-myristoylated control sample, 40 repeats (SEQ ID NO: 36) (protein)
chain: MGLYASKLFSNLGAGVPGAGVPGVGVPGAGVPGAGVPGAGVPGAGVPGAGVPGAGVPGAGVPGAGVPGAGVPGVGVPGAGVPGAGVPGAGVPGAGVPGAGVPGAGVPGAGVPGAGVPGAGVPGVGVPGAGVPGAGVPGAGVPGAGVPGAGVPGAGVPGAGVPGAGVPGAGVPGVGVPGAGVPGAGVPGAGVPGAGVPGAGVPGAGVPGAGVPG
B5: M-ELP90A,40: myristoylated ELP, 90% alanine, 10% valine, 40 pentapeptide repeats (SEQ ID NO: 36) (conjugate)
chain: B4 chain
modifications: N-terminal myristoylation
B6: M-ELP90A,80: myristoylated ELP, same composition (90% alanine, 10% valine), 80 pentapeptide repeats (SEQ ID NO: 35) (conjugate)
chain: MGLYASKLFSNLGAGVPGAGVPGVGVPGAGVPGAGVPGAGVPGAGVPGAGVPGAGVPGAGVPGAGVPGAGVPGVGVPGAGVPGAGVPGAGVPGAGVPGAGVPGAGVPGAGVPGAGVPGAGVPGVGVPGAGVPGAGVPGAGVPGAGVPGAGVPGAGVPGAGVPGAGVPGAGVPGVGVPGAGVPGAGVPGAGVPGAGVPGAGVPGAGVPGAGVPGAGVPGAGVPGVGVPGAGVPGAGVPGAGVPGAGVPGAGVPGAGVPGAGVPGAGVPGAGVPGVGVPGAGVPGAGVPGAGVPGAGVPGAGVPGAGVPGAGVPGAGVPGAGVPGVGVPGAGVPGAGVPGAGVPGAGVPGAGVPGAGVPGAGVPGAGVPGAGVPGVGVPGAGVPGAGVPGAGVPGAGVPGAGVPGAGVPGAGVPG
modifications: N-terminal myristoylation

How the values were obtained:
Format in all cases: physicochemical
[1] = UV-Vis turbidity, temperature-triggered LCST phase transition
Method: We investigated the temperature-triggered phase-transition of each construct by recording the optical density of the protein solution at 350 nm as the temperature is ramped up and down on a temperature-controlled UV-Vis spectrophotometer (Cary 300 Bio, Varian Instruments, Palo Alto, Calif.) (FIG. 10-FIG. 12). The transition temperature (T) is defined as the inflection point of the turbidity profile and was calculated as the maximum of the first derivative of OD350 versus temperature, which was determined using Igor Pro software (FIG. 10). Turbidity profiles for each sample were measured in PBS at concentrations between 12.5 and 250 μM. For the non-myristoylated control sample, ELP90A,40, the transition temperatures at these concentrations were well above 80° C. Consequently, their […] values were monitored in 1 M NaCl, which served to reduce the T into a temperature range that is experimentally accessible.
We next used UV-vis spectrophotometry to evaluate whether the lipid-ELP hybrid retained the LCST phase behavior of its parent ELP. The absorbance at 350 nm was monitored as the solution temperature was ramped up and then down at a rate of 1° C./min. […] The transition temperature (Tt) is defined as the inflection point of absorbance versus temperature, calculated as the maximum of the curve's first derivative (FIG. 2D, arrow).

[2] = Cryo-TEM imaging of self-assembled structures; details: PBS, filtered
Method: Cryo-transmission electron microscopy (TEM) experiments were performed at Duke University's Shared Materials Instrumentation Facility and at Thermo Fisher Scientific (Formerly FEI). Lacey holey carbon grids (Ted Pella, Redding, Calif.) were glow discharged in a PELCO EasiGlow Cleaning System (Ted Pella, Redding, Calif.). After filtering the samples, a 3 μL drop (1 mg/mL of each construct) at 25° C. (below the Tt for M-ELP constructs) was deposited onto the grid, blotted for 3 s with an offset of −3 mm, and vitrified in liquid ethane using the Vitrobot Mark III (FEI, Eindhoven, Netherlands). The sample chamber was maintained at 100% relative humidity to prevent sample evaporation. Grids were transferred to a Gatan 626 cryoholder (Gatan, Pleasanton, Calif.) and imaged with an FEI Tecnai G^2 Twin TEM (FEI, Eindhoven, Netherlands), which was operated at 80 keV.

[3] = Dynamic and static light scattering of self-assembled M-ELPs; details: for Hydrodynamic Radius, Day 0, Rh: Day 0, freshly filtered; for Hydrodynamic Radius, Day 0, Rh / Second Virial Coefficient A2 / Shape Factor, ρ, Rg/Rh: PBS; for hydrodynamic radius (Rh) by DLS: filtered samples in PBS at 25° C.; for Second Virial Coefficient A2 / Shape Factor, ρ, Rg/Rh: full Zimm plots; for Aggregation Number, Nagg, MWparticle/Munimer: partial Zimm plots, Day 0
Method: Characterization of myristoylated and non-myristoylated ELPs: Dynamic light scattering (DLS) studies were carried out to investigate the self-assembly of various myristoylated ELPs in aqueous solution. Prior to analysis, samples were prepared in PBS at a concentration of 50 μM, and filtered through a 0.22 μm polyvinylidene fluoride membrane (Durapore) directly into a quartz DLS cell. DLS experiments were conducted in a temperature-controlled DynaPro Microsampler (Wyatt Technologies). Measurements were obtained over a temperature range of 15 to 20° C. using 1° C. steps and at 25° C. 18 acquisitions of 5 s each were collected for every temperature point. Autocorrelation intensities at 15° C. were fitted using the regularization model and then depicted as a population size distribution histogram (FIG. 13) and intensity size distribution (FIG. 14) using Wyatt Dynamics software.
Static light scattering (SLS) studies were carried out to quantify the Rg, Rh, and Nagg of myristoylated ELPs in aqueous solution. Samples were prepared in PBS at concentration ranging from 0.5-5 mg/mL and filtered through a 0.22 μm polyvinylidene fluoride membrane (Durapore) directly into a 10 mm, disposable borosilicate glass tube (Fisher Scientific). Experiments were performed using an ALV/CGS-3 goniometer system (Germany). For M-ELP90A,120 and M-ELP90A,80, as well as for M-ELP90A,40 and M-ELP100V,40 at early time points, measurements were obtained at 25° C. for angles between 30 and 150° C. and made at 5° C. increments with 3 runs of 10 s. Smaller angles (20-45° C.) were used to measure the 40-mer ELPs at later time points, after they had matured to their larger rod-like shape. Full Zimm plots were created by conducting SLS for each construct at different concentrations ranging from 25 μM to 100 μM. These Zimm plots were created using SLS data and ALVStat software after the refractive index increment (dn/dc) was calculated (FIG. 15). These plots provided the second virial coefficient and Rg and from which shape factor was calculated (TABLE 1). Partial Zimm plots were used to calculate Nagg at 1 mg/mL.

[4] = DLS kinetics study of self-assembly; details: 50 μM in PBS, room temperature, after filtering
Method: Thus, we wanted to take more frequent light scattering measurements to track their changing size. Larger particles scatter more light, thus, we tracked intensity via DLS to monitor the size of the 40-mer M-ELPs' self-assembly.
The 40-mer M-ELPs were prepared at 50 μM in PBS and filtered directly into the instrument's quartz cell. The instrument was pre-set to room temperature and, immediately after filtering, the sample was measured periodically over 24 h for both constructs and out to 1 week for M-ELP90A,40. While M-ELP90A,40 takes 144-168 h to reach equilibrium (FIG. 17A), M-ELP100V,40 appears to do so more quickly, by 24 h after filtering (FIG. 17B).

Molecule | suppression of Tt by myristoylation ([1]; versus unmyristoylated ELP) | morphology of self-assembled structure [2] | Refractive Index Increment dn/dc [3] | Hydrodynamic Radius, Day 0, Rh [3] | hydrodynamic radius (Rh) by DLS [3] | Second Virial Coefficient A2 [3] | Shape Factor, ρ, Rg/Rh [3] | Aggregation Number, Nagg, MWparticle/Munimer [3] | time to reach equilibrium of self-assembly [4] | transition temperature (Tt) ([1]; PBS, 12.5 to 250 μM)
B1 | ~20 °C | spherical micelles | 0.1515 cm^3 g^−1 | 22.7 nm | ~22 nm | −9.23 × 10^−9 mol dm^3 g^−2 | 0.98 | 29 | – | –
B2 | – | – | – | – | 6.2 nm | – | – | – | – | –
B3 | – | rod-like micelles | 0.1258 cm^3 g^−1 | 80.3 nm | – | – | 1.30 | 201^b | ≤ 24 h | –
B4 | – | – | – | – | – | – | – | – | – | above 80 °C
B5 | – | – | 0.1669 cm^3 g^−1 | 81.9 nm | – | −2.30 × 10^−8 mol dm^3 g^−2 | 1.29 | 137^b | 144 to 168 h | –
B6 | – | spherical micelles | 0.1660 cm^3 g^−1 | 31.2 nm | – | −5.58 × 10^−9 mol dm^3 g^−2 | 1.00 | 48 | – | –

— patent US11554097B2, “Recombinant production of hybrid lipid-biopolymer materials that self-assemble and encapsulate agents” (Duke University, priority 2017, dated 2023)
